Biological target: RBD domain (333-530) of SARS-CoV-2 WT Spike (SARS-CoV-2, UniProt P0DTC2)
Test: crystal structure
Conditions: both partners purified

Binder	binding result
JE-5C Fab (Fab, V domains shown) VH: EVQLLESGGGLVQPGGSLRLSCAASGVTVTSNYMSWVRQAPGKGLEWVSVIYSGGSTYYADSVKGRFTISRHNSKNTLYLQMNSLRAEDTAVYYCARDLREAGGMDVWGQGTTVTVSS VL: DIVMTQSPSSLSASVGDRVTITCQASQDINNYLNWYQQKPGKAPKLLIYDASNLETGVPSRFSGSGSGTDFTFTISSLQPEDIATYYCQQFDNLPWTFGQGTKVEIR	binds
JM-1A Fab (Fab, V domains shown) VH: QVQLQQSGPGLVKPSGTLSLTCAVSGASISSGDWWSWVRQSPGRGLEWIGGIFHSGTTNYSPSLKSRVTMSVDQPKNQFSLHLTSVTAADTAVYYCARMRGIFDYWGQGTLVTVSS VL: DIQLTQSPSSLSVSVGDRVTITCRASQAISNSLAWYQQKPGKAPKLLLYAASTLESGVPSRFSGSGSGTDFTLTISSLQPEDFATYYCQHYYSTPFFGGGTKVEIK	binds

Biological target: T1, SARS-CoV-2 RBD, wild type (Wuhan-Hu-1) (SARS-CoV-2, UniProt P0DTC2)
Test: cell-based or functional assay
Conditions: not given

Binder	IC50, neutralisation of pseudotyped lentivirus with WT spike [ng/mL]
JH-8B (human IgG mAb) (antibody, V domains shown) VH: EVQLVESGGGLIQPGGSLRLSCAASGVTVSSNYMSWVRQAPGKGLEWISLIYSGGSTYYADSVKGRFTISRDNSKNTLYLQMNSLRAEDTAVYYCARELDIVGATDIWGQGTMVTVSS VL: not shown	9

Biological target: T1, SARS-CoV-2 RBD, wild type (Wuhan-Hu-1)
Test: ELISA
Conditions: both partners purified

Binder	binding result
JL-8C (human IgG mAb) (antibody, V domains shown) VH: QVQLVQSGAEVKKPGESLKISCKGSGYSFTSHWIGWVRQKPGKGLEWVGIIHPYDSDTRYSPSFQGLVTFSADKSSSTAYLQWSSLQASDTAIYYCARRTDQYGSHGMDVWGQGTTVTVSS VL: QSVLTQPPSASGTPGQRVTISCSGGSSNIGGNPVNWYQQLPATAPKLLIYNNNQRPSGVSDRFSGSKSGTSASLAISGLQSVDEADYFCAAWDDSLNGVLFGGGTKLTVL	binds
IY-2A (Class 4 human mAb) (antibody, V domains shown) VH: QVQLVEWGAGLLKPSETLSLTCAVYGGSFSGYYWSWIRQPPGKGLEWIGLINHSGSTNYNPSLKSRVTISLDTSKNQFSLKLTSVTAADTAVYYCARGLGIFGVVTLSDVWGQGTTVTVSS VL: NFMLTQPHSVSESPGKTVTISCTGSSGSIASNYVQWYQQRPGSAPTTVIYEDNQRPSGVPDRFSGSIDSSSNSASLTISGLRTEDEADYYCQSYDSGIWVFGGGTKLTVL	binds
JE-5C (human IgG mAb) (antibody, V domains shown) VH: EVQLLESGGGLVQPGGSLRLSCAASGVTVTSNYMSWVRQAPGKGLEWVSVIYSGGSTYYADSVKGRFTISRHNSKNTLYLQMNSLRAEDTAVYYCARDLREAGGMDVWGQGTTVTVSS VL: DIVMTQSPSSLSASVGDRVTITCQASQDINNYLNWYQQKPGKAPKLLIYDASNLETGVPSRFSGSGSGTDFTFTISSLQPEDIATYYCQQFDNLPWTFGQGTKVEIR	binds
JM-1A (human IgG mAb) (antibody, V domains shown) VH: QVQLQQSGPGLVKPSGTLSLTCAVSGASISSGDWWSWVRQSPGRGLEWIGGIFHSGTTNYSPSLKSRVTMSVDQPKNQFSLHLTSVTAADTAVYYCARMRGIFDYWGQGTLVTVSS VL: DIQLTQSPSSLSVSVGDRVTITCRASQAISNSLAWYQQKPGKAPKLLLYAASTLESGVPSRFSGSGSGTDFTLTISSLQPEDFATYYCQHYYSTPFFGGGTKVEIK	binds
FD-11A (Class 3 human mAb) (antibody, V domains shown) VH: EVQLVESGGGVVQPGRSLRLSCAASGFTFSSYGMHWVRQAPGKGLEWVAVIWYDGSNKYYADSVKGRFTISRDNSKNTLYLQMNSLRAEDTAVYYCAKGPDILTGYYNYYYYGMDVWGQGTMVTVSS VL: QSVLTQPPSVSGAPGQRVTISCTGSSSNIGAGYDVHWYQQLPGTAPKLLIYGNSNRPSGVPDRFSGSKSGTSASLAITGLQAEDEADYYCQSYDSSLSGFYVVFGGGTKLTVL	binds
FI-3A (Class 1 human mAb) (antibody, V domains shown) VH: EVQLLESGGGLIQPGGSLRLSCAASGFTVSSNYMSWVRQAPGKGLEWVSVIYSGGSTYYADSVKGRFTISRDNSKNTLYLQMNSLRAEDTAVYYCARDHVRPGMNIWGQGTMVTVSS VL: not shown	binds
C121 (Class 2 human mAb) (antibody, V domains shown) VH: not shown VL: QSALTQPASVSGSPGQSITISCTGTSSDVGSYNLVSWYQQHPGKAPKLMIYEGSKRPSGVSNRFSGSKSGNTASLTISGLQAEDEADYYCCSYAGSSTLVFGGGTKLTVL	binds

— publication PMC11192315 (PLOS Pathogens, 2024)
